Legend:
[1] = molecular target: T1, human Trop-2 expressed on cell surface (human, UniProt P09758 27-323); assay: cell-based or functional assay
T1 sequence (looked up): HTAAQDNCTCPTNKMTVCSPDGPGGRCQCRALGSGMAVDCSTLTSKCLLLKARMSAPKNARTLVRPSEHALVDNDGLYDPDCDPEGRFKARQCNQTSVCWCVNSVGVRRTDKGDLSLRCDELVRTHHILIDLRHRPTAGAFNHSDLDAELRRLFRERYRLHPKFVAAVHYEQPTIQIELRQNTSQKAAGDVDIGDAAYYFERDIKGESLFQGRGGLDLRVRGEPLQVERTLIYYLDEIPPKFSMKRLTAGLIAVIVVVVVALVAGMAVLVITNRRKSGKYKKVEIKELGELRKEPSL

[2] = molecular target: T1, human Trop-2 expressed on cell surface; assay: cell-based or functional assay; remark: listed apart in the source
[3] = molecular target: T2, human Trop-2-His protein (human, UniProt P09758 27-274); assay: ELISA, coated Trop-2 protein
T2 construct: extracellular domain; Assay paragraphs say only 'Trop-2-His'; also called hTrop-2; Kactus Cat #TRP-HM121; not shown: His tag
T2 sequence (looked up): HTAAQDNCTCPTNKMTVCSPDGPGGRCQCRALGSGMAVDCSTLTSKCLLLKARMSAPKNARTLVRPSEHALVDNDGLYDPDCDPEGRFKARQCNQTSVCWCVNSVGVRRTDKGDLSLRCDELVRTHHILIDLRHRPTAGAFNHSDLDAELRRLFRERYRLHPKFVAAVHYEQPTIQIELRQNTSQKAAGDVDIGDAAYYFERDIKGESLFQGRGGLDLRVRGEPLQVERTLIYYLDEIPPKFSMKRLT
Procedure: (§1) Purified antibodies were tested by ELISA to confirm their binding and affinity against human and cynomolgus Trop-2-His protein. Briefly, 96-well Maxisorp plates (Nunc) were coated with 100 μl/well of 0.5 μg/ml human (Kactus Cat #TRP-HM121, or Sino Biological, Cat #10428-HO8H) or cynomolgus Trop-2 protein (Kactus Cat #TRP-CM121, or Sino Biological, Cat #90893-CO8H) diluted in 1×PBS (GIBCO) overnight at 4° C. Plates were washed four times with 300 μl/well washing buffer (1×PBST, diluted from 20×PBST (Thermo Scientific) with distilled water)) and then blocked with 300 μl/well of blocking buffer (1×PBST/3% BSA (BSA, Sigma)) for 2 hours at RT on plate shaker at 100 rpm. Plates were washed and added with 100 μl/well of testing antibodies, which were serial diluted with assay buffer (PBST/1% BSA). The antibodies were incubated at room temperature for 2 hours on plate shaker at 100 rpm. Plates were washed. One hundred microliters (100 μl) of 1:10,000 diluted horseradish peroxidase (HRP) conjugated anti-hIgG antibody (Jackson Immuno Research) was added into each well and incubated at room temperature for 1 hour on plate shaker at 100 rpm. Plates were washed and added with 100 μl/well TMB substrate for color development in dark at room temperature for up to 10 minutes. After addition of 50 μl/well of stop solution (1N H₂SO₄), plates were read at 450 nm on a plate reader (SpectraMax M5). EC₅₀ values were calculated using Graphpad Prism. Sacituzumab govitecan, was used as positive control. Anti-HEL.hIgG1 was used as isotype control.

[4] = molecular target: T3, cynomolgus Trop-2-His protein (cynomolgus, UniProt P09758 27-274 (human entry)); assay: ELISA, coated Trop-2 protein
T3 construct: also called cynmolgus Trop-His; Kactus Cat #TRP-CM121; not shown: His tag
T3 chain: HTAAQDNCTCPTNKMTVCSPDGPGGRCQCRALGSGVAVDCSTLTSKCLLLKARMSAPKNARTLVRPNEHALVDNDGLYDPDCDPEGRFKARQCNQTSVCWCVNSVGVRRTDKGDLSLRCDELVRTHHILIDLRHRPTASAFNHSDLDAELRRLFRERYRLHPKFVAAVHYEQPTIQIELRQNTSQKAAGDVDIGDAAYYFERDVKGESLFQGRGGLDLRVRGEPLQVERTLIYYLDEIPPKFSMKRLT
Procedure: as §1

[5] = molecular target: T4, rat Trop-2 (rat, UniProt Q6P9Z6 25-270, limits assumed); assay: ELISA, similar to Table 24
T4 sequence (looked up): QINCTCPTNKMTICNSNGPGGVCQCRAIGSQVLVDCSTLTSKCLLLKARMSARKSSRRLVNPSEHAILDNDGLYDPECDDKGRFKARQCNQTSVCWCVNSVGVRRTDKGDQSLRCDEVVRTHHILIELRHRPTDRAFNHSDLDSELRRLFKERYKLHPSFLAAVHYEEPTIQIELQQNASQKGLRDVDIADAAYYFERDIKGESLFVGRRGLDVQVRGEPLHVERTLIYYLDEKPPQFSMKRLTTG
Procedure: as §1
(§2) Similar assays were performed to test whether the exemplary antibodies of the present disclosure bind to human Trop-1 (EpCAM) or mouse Trop-2 (Kactus, Cat #TRP-MM121) or rat Trop-2 (kactus, Cat #TRP_RM121). No binding of the exemplary antibodies of the present disclosure to human Trop-1 (EpCAM) or mouse or rat Trop-2 has been detected.

[6] = molecular target: T5, mouse Trop-2 (mouse, UniProt Q8BGV3 25-270, limits assumed); assay: ELISA, similar to Table 24
T5 construct: also called Kactus Cat #TRP-MM121
T5 sequence (looked up): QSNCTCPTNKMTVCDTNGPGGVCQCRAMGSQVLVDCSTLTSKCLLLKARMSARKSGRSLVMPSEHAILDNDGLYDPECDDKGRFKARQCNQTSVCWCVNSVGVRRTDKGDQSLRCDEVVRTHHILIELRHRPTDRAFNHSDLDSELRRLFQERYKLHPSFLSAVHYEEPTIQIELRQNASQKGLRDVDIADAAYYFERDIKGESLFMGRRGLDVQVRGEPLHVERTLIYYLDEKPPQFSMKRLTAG
Procedure: as §1, §2

[7] = molecular target: T6, human Trop-1 (EpCAM) (human, UniProt P16422 24-265, limits assumed); assay: ELISA, similar to Table 24
T6 sequence (looked up): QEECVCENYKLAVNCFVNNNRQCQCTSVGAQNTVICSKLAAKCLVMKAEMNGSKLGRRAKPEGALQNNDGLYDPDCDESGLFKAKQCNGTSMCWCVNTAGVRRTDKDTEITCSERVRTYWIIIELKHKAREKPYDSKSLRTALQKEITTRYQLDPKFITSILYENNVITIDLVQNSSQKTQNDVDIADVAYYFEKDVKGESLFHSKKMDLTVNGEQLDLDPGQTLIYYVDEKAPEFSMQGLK
Procedure: as §1, §2

Binder	EC50 of ADCC (NFAT-CD16 reporter), MCF-7 [1] [pM]	EC50 of ADCC (NFAT-CD16 reporter), MDA-MB-231 [1] [pM]	Internalization %, MCF-7, 0.25 µg/ml, 1 h [2] [%]	Internalization %, MCF-7, 0.25 µg/ml, 2 h [2] [%]	Internalization %, MCF-7, 0.25 µg/ml, 4 h [2] [%]	Internalization %, MCF-7, 0.5 µg/ml, 1 h [2] [%]	Internalization %, MCF-7, 0.5 µg/ml, 2 h [2] [%]	Internalization %, MCF-7, 0.5 µg/ml, 4 h [2] [%]	EC50 [3] [pM]	EC50 [4] [pM]	binding result [5]	binding result [6]	binding result [7]
5D4 (antibody, V domains shown, Rabbit-derived clone; LEM construct: VH + rabbit IgG CH1 + human IgG1 CH2-CH3) VH: QQLEESGGGLVKPEGSLTLTCKGSGFDFSGTYWMWWVRQAPGKGLEWIACIYVGSGSSTYYASWAKGRFTISSTSSTAVTLQATSLTAADTATYFCARGATNNVFMNYFNLWGPGTLVTVSS VL: FEMTQTPSSVSEPVGGTVTIKCQASEDISSNLGWYQQKPGQPPKLLIYGASTLASGVPSRFKGSGSGTEFTLTISDLECADAATYYCQTSYYIDDGVNGFGGGTEVVVK	570	70	44	52	64	62	59	74	16	14	no binding	no binding	no binding
5D4-1 (antibody, V domains shown) VH: QQLEESGGGLVKPEGSLTLTCKGSGFDFSGTYWMWWVRQAPGKGLEWIAPIYVGSGSSTYYASWAKGRFTISSTSSTAVTLQATSLTAADTATYFCARGATNNVFMNYFNLWGPGTLVTVSS VL: FEMTQTPSSVSEPVGGTVTIKCQASEDISSNLGWYQQKPGQPPKLLIYGASTLASGVPSRFKGSGSGTEFTLTISDLEPADAATYYCQTSYYIDDGVNGFGGGTEVVVK	610	110	59	57	62	42	56	73	18	23	no binding	no binding	no binding
74F11/15F5 (antibody, human IgG1, V domains shown, LEM construct: VH + rabbit IgG CH1 + human IgG1 CH2-CH3) VH: QEQLKESGGGLVQPGGSLKLSCKASGFDFNNYGMSWVRQAPGKGLEWIAYIYPAFHNTYYANWVNGRFTISSDNAQNTVDLQLNSLTAADTATYFCARDAGSTDYNFNLWGPGTLVTVSS VL: DVVMTQTPASVEAAVGGTVTIKCQASEDIERYLAWYQQKPGQPPKLLIYEASKLPSGVSSRFSGSGYGTEFTLTISGVECADAATYYCQQALTIGYVDNPFGGGSEVVVK	270	90	22	35	64	22	54	50	13	14	no binding	no binding	no binding
10A9 (antibody, V domains shown, Rabbit-derived clone; LEM construct: VH + rabbit IgG CH1 + human IgG1 CH2-CH3) VH: QSLEESGGDLVQPGASLTLTCKASGFDLNNYAMLWVRQAPGKGLEWIGCIYISGGTTYFASWATGRFAISKTSSTTVTLQMTSLTAADTATYFCARDDGTTSYYLNLWGPGTLVTVSS VL: YDMTQTPASVSAAVGGTVTIKCQASEDIYSLLAWYQQKPGQPPKLLIYGASNLESGVPSRFKGSGSGTEYTLTISDLECDDAATYYCQQAYTIGNIDNAFGGGTEVVVK	320	60	15	33	45	26	39	49	17	15	no binding	no binding	no binding
10A9-2 (antibody, V domains shown) VH: QSLEESGGDLVQPGASLTLTCKASGFDLNNYAMLWVRQAPGKGLEWIGSIYISGGTTYFASWATGRFAISKTSSTTVTLQMTSLTAADTATYFCARDDGTTSYYLNLWGPGTLVTVSS VL: YDMTQTPASVSAAVGGTVTIKCQASEDIYSLLAWYQQKPGQPPKLLIYGASNLESGVPSRFKGSGSGTEYTLTISDLEADDAATYYCQQAYTIGNIDNAFGGGTEVVVK	280	70	28	37	48	31	47	64	14	16	no binding	no binding	no binding

Source: patent publication US20250206841A1 (ADEPT THERAPEUTICS, published 2025)
